Patent US20200262913A1 (ZymoGenetics, published 2020)
Changes are numbered by the printed parent chain. Names and notes keep the numbering of the source.

T1: recombinant human IL-31 (hIL-31, BHK produced, A1277F, zcytor17lig CEE) (human, UniProt Q6EBC2 24-164)
T1 construct: also called recombinant hIL-31
T1 sequence: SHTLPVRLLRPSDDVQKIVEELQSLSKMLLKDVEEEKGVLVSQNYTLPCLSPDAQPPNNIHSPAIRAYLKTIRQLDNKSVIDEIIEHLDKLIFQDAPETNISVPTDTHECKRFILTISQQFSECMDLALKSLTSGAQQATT

T2: recombinant human IL-31 (as used in the NHK STAT3 phosphorylation assay of Example 5) (human, UniProt Q6EBC2 24-164, limits assumed)
T2 sequence: T1 sequence

B1: humanized 292.12.3.1 construct clone 8 (12VH5-gly + fback) (antibody, human IgG4, V domains shown)
VH: EVQLVQSGAEVKKPGESLKISCKASGYTLTRYWMQWVRQMPGKGLEWMGAIYPGDGDTRYSPSFQGQVTLTADKSISTAYLQWSSLKASDTAMYYCAFPDGYYAAPYGMDYWGQGTTVTVSS
VL: DIQMTQSPSSLSASVGDRVTITCRASGNIHNYLAWYQQKPGKVPKLLIYNAKTLADGVPSRFSGSRSETQYSLTISSLQPEDVATYYCQHFWSTPWTFGQGTKVEIKR
notes: also called 08
B2: humanized 292.12.3.1 construct clone 24 (12VH5-gly + HC(fback) + LC(G66R, G68E, F71Y)) (antibody, human IgG4, V domains shown)
VH: B1 VH
VL: B1 VL with Q70D, S72T
B3: humanized 292.12.3.1 construct clone 26 (12VH1-gly + HC(fback) + LC(F71Y)) (antibody, human IgG4, V domains shown)
VH: QVQLVQSGAEVKKPGASVKVSCKASGYTLTRYWMQWVRQAPGQGLEWMGAIYPGDGDTRYSQKFQGRVTLTADKSISTAYMELSSLRSEDTAVYYCAFPDGYYAAPYGMDYWGQGTLVTVSS
VL: B1 VL with R66G, E68G, Q70D, S72T
B4: humanized 292.12.3.1 construct clone 9 (12VH1-gly + HC(fback)) (antibody, human IgG4, V domains shown)
VH: B3 VH
VL: B1 VL with R66G, E68G, Q70D, Y71F, S72T
notes: also called 09
B5: humanized 292.12.3.1 construct clone 7 (12VH1-gly + fback) (antibody, human IgG4, V domains shown)
VH: B3 VH
VL: B1 VL
notes: also called 07
B6: humanized 292.12.3.1 construct clone 13 (12VH1-gly + HC(F29L, M69L, R71A, T73K, V78A) + LC(fback)) (antibody, human IgG4, V domains shown)
VH: B3 VH with F98R
VL: B1 VL
B7: humanized 292.12.3.1 construct clone 16 (12VH1-gly + HC(fback) + LC(G66R, G68E, D70Q, T72S)) (antibody, human IgG4, V domains shown)
VH: B3 VH
VL: B1 VL with Y71F
B8: humanized 292.12.3.1 construct clone 23 (12VH5-gly + HC(fback) + LC(D70Q, F71Y, T72S)) (antibody, human IgG4, V domains shown)
VH: B1 VH
VL: B1 VL with R66G, E68G
B9: humanized 292.12.3.1 construct clone 11 (12VH5-gly + HC(fback)) (antibody, human IgG4, V domains shown)
VH: B1 VH
VL: B1 VL with R66G, E68G, Q70D, Y71F, S72T
B10: humanized 292.12.3.1 construct clone 22 (12VH5-gly + HC(fback) + LC(G66R, G68E, D70Q, T72S)) (antibody, human IgG4, V domains shown)
VH: B1 VH
VL: B1 VL with Y71F
B11: humanized 292.12.3.1 construct clone 17 (12VH1-gly + HC(fback) + LC(D70Q, F71Y, T72S)) (antibody, human IgG4, V domains shown)
VH: B3 VH
VL: B1 VL with R66G, E68G
B12: humanized 292.12.3.1 construct clone 25 (12VH1-gly + HC(F29L, R94F) + LC(F71Y)) (antibody, human IgG4, V domains shown)
VH: B3 VH with L70M, A72R, K74T, A79V
VL: B1 VL with R66G, E68G, Q70D, S72T
B13: humanized 292.12.3.1 construct clone 21 (12VH5-gly + HC(G24A, S28T, F29L, R94F) + LC(fback)) (antibody, human IgG4, V domains shown)
VH: B1 VH with L70I, T71S
VL: B1 VL
B14: humanized 292.12.3.1 construct clone 18 (12VH1-gly + HC(fback) + LC(G66R, G68E, F71Y)) (antibody, human IgG4, V domains shown)
VH: B3 VH
VL: B1 VL with Q70D, S72T
B15: humanized 292.12.3.1 construct clone 10 (12VH1-gly + LC(fback)) (antibody, human IgG4, V domains shown)
VH: B3 VH with L29F, L70M, A72R, K74T, A79V, F98R
VL: B1 VL
B16: humanized 292.12.3.1 construct clone 14 (12VH1-gly + HC(M69L, R71A, T73K, V78A, R94F) + LC(fback)) (antibody, human IgG4, V domains shown)
VH: B3 VH with L29F
VL: B1 VL

Target: recombinant human IL-31 (C108S), produced in E. coli by ZymoGenetics, MW 18 kDa (human), Q6EBC2
Experiment: cell-based or functional assay

Row | Binder | Average Fold loss in potency relative to 292.12.3.1, BAF-3(hIL-31R) proliferation assay | Average Potency (IC50), inhibition of hIL-31-induced proliferation of BAF-3(hIL-31R) cells
1 | B1 | 2.5 fold | 4.1 nM
2 | B2 | 4 fold | 6 nM
3 | B3 | 5.8 fold | 9.3 nM
4 | B4 | 15.1 fold | 28.5 nM
5 | B5 | 3.3 fold | 4.5 nM
6 | B6 | 99.1 fold | 109 nM
7 | B7 | 9.8 fold | 10.6 nM
8 | B8 | 7.6 fold | 8.6 nM
9 | B9 | 11.6 fold | 22.8 nM
10 | B10 | 13.2 fold | 14 nM
11 | B11 | 5.2 fold | 5.9 nM
12 | B12 | 16.5 fold | 26.3 nM
13 | B13 | 3.5 fold | 4.8 nM
14 | B14 | 5.9 fold | 8.1 nM

Target: T1, recombinant human IL-31 (hIL-31, BHK …)
Experiment: SPR (Biacore), against parent 292.12.3.1
Experimental: (§1) The purified monoclonal antibodies were immobilized in individual flow cells on a CM5 type sensor chip. Immobilizations were performed using a standard amine coupling procedure, aiming for an immobilization level of 500 Resonance Units (RU). The antibodies were diluted to 1-5 ug/ml in 10 mM NaAc pH 4.5.
(§2) HPS-EP pH 7.4 (10 mM HEPES, 150 mM NaCl, 3 mM EDTA and 0.005% Polysorbat P20) was used as running buffer, and diluents for the recombinant hIL-31 (hIL-31, BHK produced, A1277F, zcytor17lig CEE). The hIL-31 was tested in a 3-fold dilution series from 333.3 nM to 1.4 nM. Association (injection) was 4 min., followed by a 20 min. dissociation (wash) period. Flow rate was 50 ul/min. Experiments were performed at 25OC. Regeneration of the surface was accomplished by injection of 30 sec. pulse of 10 mM Glycin-HCl pH 1.8 or 1M formic acid, at a 30 ul/min flow rate. Detection in all flow cells simultaneously. Flow cell #1 contained no immobilized antibody, and was used for subtraction of background and bulk.
(§3) The kinetic parameters were calculated by global fitting of the data using a 1:1 langmuir binding model. Data was inspected for mass-transport limitations prior to calculation of the kinetic parameters. In some experiments the Rmax was fitted locally, and the RI constant at 0.

Row | Binder | Relative potency loss (KD) | Relative potency loss (kd)
15 | B3 | ~0.4 x to parent | 
16 | B4 |  | ~1.5 x to parent
17 | B6 | ~10 x to parent | ~50 x to parent
18 | B7 | ~0.5 x to parent | 
19 | B15 | ~85 x to parent | ~245 x to parent
20 | B8 | ~0.6 x to parent | ~1.5 x to parent
21 | B10 |  | ~2 x to parent
22 | B11 | ~0.4 x to parent | 
23 | B16 | ~5.5 x to parent | ~12 x to parent
24 | B12 | ~0.5 x to parent | 
25 | B14 | ~0.5 x to parent | 

Target: T1, recombinant human IL-31 (hIL-31, BHK …)
Experiment: SPR (Biacore), mAb amine-coupled to CM5 chip, hIL-31 injected
Experimental: as §1, §2, §3

Row | Binder | Kd | koff | kon
26 | B1 | 1.9 nM | 5.4e-05 s⁻¹ | 28000 M⁻¹ s⁻¹
27 | B3 | 0.68 nM | 7e-05 s⁻¹ | 100000 M⁻¹ s⁻¹
28 | B4 | 2.1 nM | 9e-05 s⁻¹ | 43000 M⁻¹ s⁻¹
29 | B5 | 1.9 nM | 5.7e-05 s⁻¹ | 33000 M⁻¹ s⁻¹
30 | B6 | 24 nM | 0.003 s⁻¹ | 120000 M⁻¹ s⁻¹
31 | B7 | 1.2 nM | 7.5e-05 s⁻¹ | 61000 M⁻¹ s⁻¹
32 | B15 | 186 nM | 0.015 s⁻¹ | 88000 M⁻¹ s⁻¹
33 | B8 | 1.4 nM | 9e-05 s⁻¹ | 65000 M⁻¹ s⁻¹
34 | B9 | 1.46 nM | 7.6e-05 s⁻¹ | 52000 M⁻¹ s⁻¹
35 | B10 | 1.7 nM | 0.00011 s⁻¹ | 67000 M⁻¹ s⁻¹
36 | B11 | 0.9 nM | 6.5e-05 s⁻¹ | 70000 M⁻¹ s⁻¹
37 | B16 | 12.5 nM | 0.00073 s⁻¹ | 59000 M⁻¹ s⁻¹
38 | B12 | 0.85 nM | 7.2e-05 s⁻¹ | 85000 M⁻¹ s⁻¹
39 | B13 | 1.4 nM | 9.7e-05 s⁻¹ | 69000 M⁻¹ s⁻¹
40 | B14 | 1.13 nM | 6.2e-05 s⁻¹ | 55000 M⁻¹ s⁻¹

Target: T2, recombinant human IL-31 (as used in the …)
Experiment: cell-based or functional assay

Row | Binder | IC50, IL-31-induced STAT3 phosphorylation in NHK, Exp 4 | IC50, IL-31-induced STAT3 phosphorylation in NHK, Exp 10 | IC50, IL-31-induced STAT3 phosphorylation in NHK, Exp 8 | IC50, IL-31-induced STAT3 phosphorylation in NHK, Exp 9 | IC50, IL-31-induced STAT3 phosphorylation in NHK, Exp 6 | IC50, IL-31-induced STAT3 phosphorylation in NHK, Exp 7
41 | B1 | 6.74 nM | 3.44 nM |  |  |  | 
42 | B3 |  |  | 7.84 nM | 6.93 nM |  | 
43 | B4 |  |  | 6.59 nM | 7.1 nM | 3.25 nM | 7.37 nM
44 | B5 | 7.8 nM | 8.82 nM | 5.44 nM | 7.58 nM | 3.99 nM | 7.74 nM
45 | B6 |  |  |  |  | 46.5 nM | 211 nM
46 | B7 |  |  |  |  | 3.84 nM | 6.22 nM
47 | B15 |  |  |  |  | 68.8 nM | 224 nM
48 | B11 |  |  |  |  | 6.65 nM | 5.29 nM
49 | B16 |  |  |  |  | 71.9 nM | 242 nM
50 | B12 |  |  | 5.85 nM | 7.28 nM |  | 
51 | B14 |  |  |  |  | 2.6 nM | 2.68 nM
